Drawing on publication doi:10.1101/2020.09.18.301952, this text covers stoichiometry N (ACE2 per S trimer) for one substance.

The target in the assay is stabilized soluble SARS-CoV-2 S protein trimer (SARS-CoV-2) (UniProt P0DTC2). The assay is described as follows: cryo-EM structure.

Consider “monomeric soluble ACE2 (ACE2_(615)) (from UniProt Q9BYF1 18-615) (domain or fragment)”, for which the stoichiometry N (ACE2 per S trimer) is 3.
